{"source": "paper PMC10659930", "about": "(Cell Chemical Biology, 2023)", "binders": {"B1": {"name": "ADPT02606 (antibody, V domains shown)", "VH": "EVQLVESGGGLVKPGGSLRLSCAASGFTFSSYSMNWVRQAPGKGLEWVSSITSSSGYMYYADSVKGRFTISRDNAKNSLYLQLNSLRAEDTAVYYCAKDSAFDLWEVRSYYYVMDVWGQGTTVTVSS", "VL": "not shown"}}, "target": "SARS-CoV-2 spike S1 domain (SARS-CoV-2, ancestral (Wuhan-Hu-1/WA1 …, UniProt P0DTC2))", "assay": "ELISA", "data": [{"binder": "B1", "values": [{"measurement": "binding result", "result": "binds"}]}]}
